The series deals with the molecule itself. As to the kind of experiment: size exclusion chromatography (HPLC, TSK G3000SWXL), phosphate buffer pH 7.4; self-association. As for the experimental part: 0.02 ml of a protein (conc. 5-20 μM) was injected into a TSK G3000SWXL column (TosoHaas, Japan) and a phosphate buffer solution (50 mM sodium phosphate/150 mM NaCl, pH 7.4) was flowed therein at a flow rate of 0.7 ml/min and the chromatogram of the proteins was obtained from the absorbance at 280 nm.

B1: 3D8 VH protein (heavy-chain variable domain of anti-DNA antibody 3D8) (other)
VH: EVQLQQSGPELVKPGASVKMSCKASGYTFTSYVMHWVKQKPGQGLEWIGYINPYNDGTKYNEKFKGKATLTSDKSSSTAYMELSSLTSEDSAVYYCARGAYKRGYAMDYWGQGTSVTVSS
notes: Isolated single VH domain of mouse (MRL-lpr/lpr) IgG2a/kappa antibody 3D8; It was expressed in E. coli from vector pIg20H-3D8 VH and purified on IgG-sepharose
Take B1: the binding result was “no binding (tested: 5-20 µM)”.

B2: 3D8 VL protein (light-chain variable domain of anti-DNA antibody 3D8) (other)
VL: DIVMSQSPSSLAVSAGEKVTMSCKSSQSLFNSRTRKNYLAWYQQKPGQSPKLLIYWASTRESGVPDRFTGSGPGTDFTLTISSVQAEDLAVYYCKQSYYHMYTFGSGTKLEIKRAD
notes: Isolated single VL domain of mouse (MRL-lpr/lpr) IgG2a/kappa antibody 3D8; It was expressed in E. coli from vector pIg20L-3D8 VL and purified on IgG-sepharose; This domain was immobilized on the CM5 chip in the SPR assay
Regarding B2, the binding result is on record as “no binding (tested: 5-20 µM)”.

The values are drawn from patent publication US20110201104A1 (SUNGKYUNKWAN UNIVERSITY FOUNDATION FOR CORPORATE …, published 2011).
